Experimental data from patent US20220175781A1, “CD40L COMPOSITIONS AND METHODS FOR TUNABLE REGULATION” (Obsidian Therapeutics, Inc., priority 2019, published 2022).
Where “and” joins values, the source holds several entries; their conditions need not be identical. Identical values can stand only once.

Legend:
HEK293T cells = test: Surface expression of CD40L trimerization mutants, transfected HEK293T cells (FACS); format: cell-based, human; conditions: transiently transfected HEK293T cells
Description: Mutations were engineered within CD40L payload to reduce the binding affinity of CD40L payload for the CD40L endogenously expressed by cells. Constructs OT-002078, OT-002079, OT-002080, OT-002081, OT-002082 were generated with the CD40L trimerization mutants. HEK293T cells were transiently transfected with the constructs and CD40L expression was measured by FACS.

T cells = test: % CD40L positive cells in vivo, transduced T cells in NSG mice dosed with TMP; parameters: species or system NSG female mice; conditions: constitutive construct
Description: Based on the in vitro data, regulatability of CD40L constructs in vivo was tested. 10-week old NSG female mice were injected with T cells transduced with one of the following constructs empty vector, OT-001661, and OT-001662 (day 0). On day 1, mice were pre-bled prior to dose with ligand. On day 2, mice were dosed every 4 hours with TMP at 500 mg/kg body weight of the mouse or vehicle control. Two hours after every dose, blood was collected from the mice to measure CD40L levels. On day 3, i.e. 24 hours after the first dose, mice were terminally bled for analysis. The values in bold represent the average values for each bleed.

Jurkat cells = test: In vivo CD40L regulation in Jurkat cells harvested from bone marrow of NSG mice; conditions: constitutive construct, Jurkat cells from bone marrow, day 16
From the text: Jurkat cells stably expressing OT-001661, OT-002034 were intravenously infused into 8-week old NSG mice (20 million cells per mouse). Starting by day 15, mice were orally dosed according to the study design shown in Table 42 and Jurkat cells were harvested on day 16 from the bone marrow and analyzed by FACS. In Tables 41 and 42, TMP refers to Trimethoprim and all dosing is relative to “0 hr” time point on day 16. The results are shown in Table 43 and Table 44 where “EV” refers to empty vector control.

[1] = tested on: T cells (CD4 and CD8 positive); test: CD40L MFI in vitro in CD4 and CD8 positive T cells, 10 μM TMP; format: cell-based; conditions: constitutive, ligand not given
Description: T cells were transduced with OT-001662 and then treated with 10 μM TMP on day 4. CD40L expression was analyzed by FACS both in the CD4 and CD8 positive T cell populations.

T cells (CD4+ and CD8+) = test: Co-expression of CD40L and CD19 CAR on transduced T cells; format: cell-based
From the text: The results for CD4+ and CD8+ cells and total cells are shown below.

hCD45+ cells = hCD45+ cells in blood by FACS 14 days after T-cell infusion; format: in vivo, mice; conditions: cell number not given
Description: Increased expression of CD40L on CD19 positive CART cells may increase the efficacy of CAR+ T cells in vivo. To test this, 8-week old mice were injected with Nalm6-luc (1 million per mouse). On day 6, Nalm6 tumor burden was measured and mice were grouped to ensure that all groups had similar tumor sizes. Body weight and Bioluminescence Intensity (BLI) were measured twice a week. Blood and plasma were also collected for cytokine analysis, CD40L and IL12.
Human cells were analyzed by FACS (hCD45+) from the blood 14 days after T-cell infusion, which equals 21 days after tumor implant. The results are shown in Table 22 where M indicates million.

B1: OT-001661: constitutively expressed full length CD40L construct (protein)
chain: MHMIETYNQTSPRSAATGLPISMKIFMYLLTVFLITQMIGSALFAVYLHRRLDKIEDERNLHEDFVFMKTIQRCNTGERSLSLLNCEEIKSQFEGFVKDIMLNKEETKKENSFEMQKGDQNPQIAAHVISEASSKTTSVLQWAEKGYYTMSNNLVTLENGKQLTVKRQGLYYIYAQVTFCSNREASSQAPFIASLCLKSPGRFERILLRAANTHSSAKPCGQQSIHLGGVFELQPGASVFVNVTDPSQVSHGTGFTSFGLLKL
% CD40L positive (HEK293T cells): 43.3% | % CD40L positive cells in vivo (T cells; 0 hours, average): 90.1% | % CD40L positive cells in vivo (T cells; 0 hours, individual values): 80.9% and 87.1% and 84.4% and 107.8% | % CD40L positive cells in vivo (T cells; 2 hours, average): 62.3% | % CD40L positive cells in vivo (T cells; 2 hours, individual values): 85.6% and 67.4% and 33.3% and 62.7% | % CD40L positive cells in vivo (T cells; 24 hours, average): 55.8% | % CD40L positive cells in vivo (T cells; 24 hours, individual values): 53.5% and 66.7% and 61.0% and 41.9% | CD40L MFI values (Jurkat cells; Average): 586.5 | Percent CD40L positive cells (Jurkat cells; Average): 58.9% | CD40L MFI values (Jurkat cells; individual mice): 507 and 572 and 660 and 607 | Percent CD40L positive cells (Jurkat cells; individual mice): 52.5% and 57.5% and 64.2% and 61.4% | CD40L MFI in vitro ([1]; CD4+): 24489 | CD40L MFI in vitro ([1]; CD8+): 14352 | Percent of Cells co-expressing CD40L and CD19 CAR (T cells (CD4+ and CD8+); All Cells): 0% | Percent of Cells co-expressing CD40L and CD19 CAR (T cells (CD4+ and CD8+); CD4+): 0% | Percent of Cells co-expressing CD40L and CD19 CAR (T cells (CD4+ and CD8+); CD8+): 0% | Percentage hCD45+ cells, Average (hCD45+ cells): 0.002% | Percentage hCD45+ cells, Individual values (hCD45+ cells): 0.00249% and 0.00331% and 0.00198% and 0%
